Reference: PMC8217502

Assays:
[1] = target: F1FO-ATP synthase (complex V) (P. falciparum); test: native gel or EMSA; high molecular mass (HMM) complexome profiles: GCT3D experiment repeated on a 3-16% BN gel, only the top part of the gel (Mr app. >1000 kDa) analysed; gametocytes, digitonin
[2] = target: F1FO-ATP synthase (complex V) (P. falciparum); test: native gel or EMSA; complexome profiling after method 3 only (nitrogen cavitation without saponin, larger amounts of parasites; samples ABS3D and GCT3D), digitonin, BN-PAGE 4-16%, stacking gel also analysed
[3] = target: cytochrome bc1 complex (CIII) (P. falciparum) (UniProt Q7HP03); test: native gel or EMSA; complexome profiling: mitochondria-enriched fractions of mixed ABS parasites or stage V gametocytes (enrichment methods 1-3), solubilised with digitonin or DDM, BN-PAGE on 4-16% gradient gels, gel slices analysed by LC-MS/MS; comigration of iBAQ migration profiles

Row | Substance | stoichiometry N [1] | stoichiometry N [2] | stoichiometry N [3]
1 | F1FO-ATP synthase (complex V) | 2 | 2 | –
2 | cytochrome bc1 complex (CIII), Q7HP03 1-376; Q8I6U9 1-394; Q8IL75 1-355; Q8ILJ5 1-88; Q8IJS2 1-192; Q9NLB3 1-137; C0H4H6 1-96; Q8I2I2 1-484; Q8I3N3 1-534; Q8IBM6 1-79; A0A5K1K9E9 1-163; Q8IB13 1-54 | – | – | 2
